Test results from IntAct's records for PubMed 29039417.

B1: Protein PTHB1 (Homo sapiens), Q3SYG4 (parent)
chain: MSLFKARDWWSTILGDKEEFDQGCLCLANVDNSGNGQDKIIVGSFMGYLRIFSPHPAKTGDGAQAEDLLLEVDLRDPVLQVEVGKFVSGTEMLHLAVLHSRKLCVYSVSGTLGNVEHGNQCQMKLMYEHNLQRTACNMTYGSFGGVKGRDLICIQSMDGMLMVFEQESYAFGRFLPGFLLPGPLAYSSRTDSFLTVSSCQQVESYKYQVLAFATDADKRQETEQQKLGSGKRLVVDWTLNIGEQALDICIVSFNQSASSVFVLGERNFFCLKDNGQIRFMKKLDWSPSCFLPYCSVSEGTINTLIGNHNNMLHIYQDVTLKWATQLPHIPVAVRVGCLHDLKGVIVTLSDDGHLQCSYLGTDPSLFQAPNVQSRELNYDELDVEMKELQKIIKDVNKSQGVWPMTEREDDLNVSVVVSPNFDSVSQATDVEVGTDLVPSVTVKVTLQNRVILQKAKLSVYVQPPLELTCDQFTFEFMTPDLTRTVSFSVYLKRSYTPSELEGNAVVSYSRPTDRNPDGIPRVIQCKFRLPLKLICLPGQPSKTASHKITIDTNKSPVSLLSLFPGFASQSDDDQVNVMGFHFLGGARITVLASKTSQRYRIQSEQFEDLWLITNELILRLQEYFEKQGVKDFACSFSGSIPLQEYFELIDHHFELRINGEKLEELLSERAVQFRAIQRRLLARFKDKTPAPLQHLDTLLDGTYKQVIALADAVEENQGNLFQSFTRLKSATHLVILLIALWQKLSADQVAILEAAFLPLQEDTQELGWEETVDAAISHLLKTCLSKSSKEQALNLNSQLNIPKDTSQLKKHITLLCDRLSKGGRLCLSTDAAAPQTMVMPGGCTTIPESDLEERSVEQDSTELFTNHRHLTAETPRPEVSPLQGVSE
partner: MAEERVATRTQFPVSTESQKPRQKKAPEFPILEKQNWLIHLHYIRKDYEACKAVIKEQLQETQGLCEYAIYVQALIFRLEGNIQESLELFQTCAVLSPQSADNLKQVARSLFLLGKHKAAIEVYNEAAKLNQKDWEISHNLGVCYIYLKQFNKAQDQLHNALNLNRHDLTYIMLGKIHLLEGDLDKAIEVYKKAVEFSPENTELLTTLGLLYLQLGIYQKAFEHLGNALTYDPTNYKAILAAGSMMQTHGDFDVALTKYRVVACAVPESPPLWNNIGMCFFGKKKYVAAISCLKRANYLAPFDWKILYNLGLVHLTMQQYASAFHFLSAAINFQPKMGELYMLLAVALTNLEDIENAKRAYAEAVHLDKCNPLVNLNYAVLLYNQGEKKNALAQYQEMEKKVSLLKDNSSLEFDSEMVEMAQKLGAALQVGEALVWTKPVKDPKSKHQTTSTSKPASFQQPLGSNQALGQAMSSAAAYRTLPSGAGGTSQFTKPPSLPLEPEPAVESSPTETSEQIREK

Variants of: B1
Conditions: with bbs4_human BBS4, Q96RK4

Row | Variant | effect of a mutation on the interaction
1 | V413K | with no effect
2 | L737A | with no effect
3 | P641A | with no effect
4 | N412E | with no effect
5 | H652E | with no effect
6 | F724A | with no effect
7 | C634A | with no effect
8 | C634E | with no effect
9 | T865A | with no effect
10 | T484K | with no effect
11 | D830K | with no effect
12 | L698E | disrupting interaction strength
13 | V557K | with no effect
14 | V557A | with no effect
15 | K685E | disrupting interaction strength
16 | K685A | with no effect
17 | D850K | with no effect
18 | M477A | with no effect
19 | T543A | with no effect
20 | N420K | with no effect
21 | V485A | with no effect
22 | A455E | with no effect
23 | K743E | with no effect

Row | Variant | effect of a mutation on the interaction
24 | S561E | with no effect
25 | P564E | with no effect
26 | L655K | with no effect
27 | Q693K | with no effect
28 | D817E | with no effect
29 | L616P | disrupting interaction strength
30 | V522A | with no effect
31 | E765K | with no effect
32 | D804A | with no effect
33 | I676E | with no effect
34 | G659K | with no effect
35 | V450M | disrupting interaction strength
36 | T871K | with no effect
37 | Y508A | with no effect
38 | Q705M | disrupting interaction strength
39 | Q705K | with no effect
40 | Q705E | with no effect
41 | N658E | with no effect
42 | T805E | with no effect
43 | G823A | with no effect
44 | A712K | with no effect
45 | V505K | with no effect
46 | P464K | with no effect

Row | Variant | effect of a mutation on the interaction
47 | F580K | with no effect
48 | N614A | with no effect
49 | D480E | with no effect
50 | R598E | with no effect
51 | L680K | with no effect
52 | Q764K | with no effect
53 | A833S | disrupting interaction strength
54 | H869E | with no effect
55 | H869A | with no effect
56 | D686A | with no effect
57 | D631K | with no effect
58 | I534A | with no effect
59 | G767E | with no effect
60 | L583E | with no effect
61 | I601A | with no effect
62 | S637E | with no effect
63 | A872K | with no effect
64 | A872E | with no effect
65 | L827A | with no effect
66 | L740K | with no effect
67 | L465E | disrupting interaction strength
68 | S723P | disrupting interaction strength
69 | S723A | with no effect

Row | Variant | effect of a mutation on the interaction
70 | P530L | disrupting interaction strength
71 | P530E | with no effect
72 | R514A | with no effect
73 | P540E | with no effect
74 | P540K | with no effect
75 | V424K | with no effect
76 | S880K | with no effect
77 | E644K | with no effect
78 | V430E | with no effect
79 | I451E | with no effect
80 | G638E | with no effect
81 | E647A | with no effect
82 | D572K | with no effect
83 | D572A | with no effect
84 | S593A | with no effect
85 | S458A | with no effect
86 | S458E | with no effect
87 | E607K | with no effect
88 | K454A | with no effect
89 | T552A | with no effect
